Starred links: 1 amine or outer side, 2 acyl side, 3 side chain; linkers in the order of their positions; H or OH if unused. Positions of bridges follow the written chain, without caps; N, C: chain ends. *: point of attachment. TATA = O=C(CC[*:1])N1CN(C(=O)CC[*:2])CN(C(=O)CC[*:3])C1; Pent4ynoyl = C#CCCC(=O)*
Target: T1, Recombinant biotinylated human P-Selectin protein (human, UniProt P16109 42-771, limits assumed, biotinylated (site not stated))
T1 sequence (looked up): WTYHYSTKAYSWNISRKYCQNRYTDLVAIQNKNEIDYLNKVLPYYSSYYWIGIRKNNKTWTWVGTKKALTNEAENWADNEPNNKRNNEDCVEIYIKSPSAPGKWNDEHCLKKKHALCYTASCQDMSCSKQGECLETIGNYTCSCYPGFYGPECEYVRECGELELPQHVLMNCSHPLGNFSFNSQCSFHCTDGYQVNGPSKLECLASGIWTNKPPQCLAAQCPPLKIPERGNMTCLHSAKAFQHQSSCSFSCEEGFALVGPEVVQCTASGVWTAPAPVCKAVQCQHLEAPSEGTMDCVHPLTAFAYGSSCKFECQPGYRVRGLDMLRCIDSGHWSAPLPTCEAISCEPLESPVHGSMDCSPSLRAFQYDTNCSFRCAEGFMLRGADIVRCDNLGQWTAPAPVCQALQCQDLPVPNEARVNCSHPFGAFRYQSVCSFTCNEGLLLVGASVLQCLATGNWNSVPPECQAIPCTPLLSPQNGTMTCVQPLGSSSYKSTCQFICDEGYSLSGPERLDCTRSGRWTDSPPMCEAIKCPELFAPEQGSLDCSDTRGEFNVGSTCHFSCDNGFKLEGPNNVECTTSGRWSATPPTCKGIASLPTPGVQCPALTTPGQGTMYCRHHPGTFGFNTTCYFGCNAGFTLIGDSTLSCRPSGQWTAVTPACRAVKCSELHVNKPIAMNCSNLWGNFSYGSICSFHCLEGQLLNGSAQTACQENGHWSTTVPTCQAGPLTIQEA
Assay: SPR (Biacore), biotinylated human P-selectin captured on streptavidin chip, peptide as analyte; peptide BCY5455, a separate peptide number
Protocol: Biacore experiments were performed to determine ka (M−1s−1), kd (s−1), KD (nM) values of monomeric peptides binding to human Selectin proteins. Recombinant biotinylated human P-Selectin protein was used. For analysis of binding, either a Biacore 3000 or 5200 instrument was used with a CMS sensor chip (GE Healthcare). For sensor chip surface preparation, streptavidin was immobilized on the chip using standard amine-coupling chemistry at 25° C. with HBS-N (10 mM HEPES, 0.15 M NaCl, pH 7.4) as the running buffer. The carboxymethyl dextran surface was activated with a 12 min injection of a 1:1 ratio of 0.4 M 1-ethyl-3-(3-dim ethyl aminopropyl) carbodiimide hydrochloride (EDC)/0.1 M N-hydroxy succinimide (NHS) at a flow rate of 10 μl/min. For capture of streptavidin, protein was diluted to 0.2 mg/ml in 10 mM sodium acetate (pH 4.5) and captured by injecting 70 μl onto the activated chip surface. Residual activated groups were blocked with a 7 min injection of 1 M ethanolamine (pH 8.5). Biotinylated protein stock was diluted 1:100 in HBS-N and captured on one flow cell at 5 μl/min to a level of 1000-1500 RU. Buffer was changed to PBS/0.05% Tween 20 and a dilution series of the peptides was prepared in this buffer with a final DMSO concentration of 0.5%. […] In all cases a titration was performed with either seven 2-fold dilutions or five 3-fold dilutions. […]

B1: BCY5455 (peptide)
peptide: Pent4ynoyl-ACYMEWCDVTDYGCA-NH2
modifications: linker 2-7-14 via TATA; also: tandem dimer of 2 copies via central hinge C (GTA) and spacer S1A n=23 joined to N-terminal Pya
Question: How did the Kd turn out when B1 was run?
Answer: The Kd was 1250 nM.

Source: patent US20220339289A1 (Bicycle, published 2022)
